Results published in patent US20060015952A1, “Screening assays and methods of tumor treatment” (GENENTECH, INC., priority 2003, published 2006).

Assays:
[1] = system: TGF-beta extracellular domain (ECD); assay: Binding ELISA of chimeric and humanized 2G7 versions; details: for binding to TGF-beta of CDR mutants of hu2G7 Version 5 IgG: germline revertants / CDR H2 mutant
Description: DNA sequencing of the chimeric clone allowed identification of the CDR residues (Kabat et al., supra). Using oligonucleotide site-directed mutagenesis, all six of these CDR regions were introduced into a complete human framework (VL kappa subgroup I and VH subgroup III) contained on plasmid VX4 as previously described (Presta et al., Cancer Research, 57: 4593-4599 (1997)). Protein from the resultant “CDR-swap” was expressed and purified as above. Binding studies were performed to compare the two versions. Briefly, a NUNC MAXISORP™ plate was coated with 1 microgram per ml of TGF-beta extracellular domain (ECD; produced as described in WO 90/14357) in 50 mM of carbonate buffer, pH 9.6, overnight at 4° C., and then blocked with ELISA diluent (0.5% BSA, 0.05% POLYSORBATE™ 20, PBS) at room temperature for 1 hour. Serial dilutions of samples in ELISA diluent were incubated on the plates for 2 hours. After washing, bound Fab fragment was detected with biotinylated murine anti-human kappa antibody (ICN 634771) followed by streptavidin-conjugated horseradish peroxidase (Sigma) and using 3,3′,5,5′-tetramethyl benzidine (Kirkegaard & Perry Laboratories, Gaithersburg, Md.) as substrate. Absorbance was read at 450 nm.

TGF-beta = assay: Mouse messangial cell proliferation assay; type: cell-based; details: antibody 20 μg/ml; TGF-beta at 1 ng/ml level; 48 hours
Description: A mouse messangial cell proliferation assay was used to test a control antibody and several humanized antibodies (V5H.V5L, V5H.gIL2, H2NI.V5L, V5H.gIL1gIL2, and H2N1.gIL gIL2). The protocol is as follows:
On day 1: Mouse messangial cells were plated on a 96-well plate in Media (a 3:1 mixture of Dulbecco's modified Eagle's medium and Ham's F12 medium-95%-fetal bovine serum-5%-supplemented with 14 mM HEPES buffer) and grown overnight.
On day 2: TGF-beta with three different concentrations (100 ng, 10 ng and 1 ng) and five different types of humanized TGF antibody (20 μg/ml) were diluted in serum-free Media and added to the cells. A mouse TGF antibody was used as a control (2G7).
On day 4: After 48 hours incubation, 20 μl of reaction buffer (CELLTITER 96® AQUEOUS ONE SOLUTION REAGENT™ containing a tetrazolium compound 3-(4,5-dimethylthiazol-2-yl)-5-(3-carboxymethoxyphenyl)-2-(4-sulfophenyl)-2H-tetrazolium, inner salt, and an electron coupling reagent (phenazine ethosulfate) (Promega Inc. Cat number G3580)) was added to each well of the plate and allowed to incubate for 2 hours. The absorbance (OD) was measured at 490 nm.

TGF-beta1 through -beta3 = assay: 3T3 cell proliferation assay, neutralization of TGF-betas; type: cell-based, mouse; details: 3T3 cells stimulated with one of three TGF-betas
Description: Various humanized antibodies were tested for their activity in neutralizing various TGF-betas versus 2G7 using the 3T3 cell line from fibroblasts of disaggregated Swiss mouse embryos stimulated with one of three TGF-betas in vitro and then their proliferation was measured as activity.

Row | Molecule | binding to TGF-beta compared to chimeric 2G7 Fab fragment ([1]; humanized versions (FR mutants)) | blocking of cell inhibition induced by TGF-beta (TGF-beta) | activity in neutralizing TGF-betas versus 2G7 (TGF-beta1 through -beta3) | binding to TGF-beta of CDR mutants of hu2G7 Version 5 IgG [1]
1 | Version 5: humanized 2G7, ArgH71Ala, AlaH49Gly, PheH67Ala; SEQ ID Nos. 3 and 4 (antibody, V domains shown, Sequence is synthesized) VL: DIQMTQSPSSLSASVGDRVTITCRASQSVLYSSNQKNYLAWYQQKPGKAPKLLIYWASTRESGVPSRFSGSGSGTDFTLTISSLQPEDFATYYCHQYLSSDTFGQGTKVEIKRTVA VH: EVQLVESGGGLVQPGGSLRLSCAASGYAFTNYLIEWVRQAPGKGLEWVGVNNPGSGGSNYNEKFKGRATISADNSKNTLYLQMNSLRAEDTAVYYCARSGGFYFDYWGQGTLVTVSSASTKGPS | binding restored to that of the original chimeric 2G7 Fab fragment | blocked cell inhibition similarly to the control |  | 
2 | V5H.g1L2: Same as Version 5 except the CDR L2 is reverted to human germline kappa locus sequence YASSLQS (antibody, V domains shown) VH: EVQLVESGGGLVQPGGSLRLSCAASGYAFTNYLIEWVRQAPGKGLEWVGVNNPGSGGSNYNEKFKGRATISADNSKNTLYLQMNSLRAEDTAVYYCARSGGFYFDYWGQGTLVTVSS VL: DIQMTQSPSSLSASVGDRVTITCRASQSVLYSSNQKNYLAWYQQKPGKAPKLLIYYASSLQSGVPSRFSGSGSGTDFTLTISSLQPEDFATYYCHQYLSSDTFGQGTKVEIK |  |  | comparable activity, with V5H.gIL2 being the least effective | bound to TGF-beta as well as V5H.V5L
3 | V5H.g1L1glL2: Same as Version 5 except CDR L1 and CDR L2 reverted to human germline kappa locus sequences (antibody, V domains shown) VH: EVQLVESGGGLVQPGGSLRLSCAASGYAFTNYLIEWVRQAPGKGLEWVGVNNPGSGGSNYNEKFKGRATISADNSKNTLYLQMNSLRAEDTAVYYCARSGGFYFDYWGQGTLVTVSS VL: DIQMTQSPSSLSASVGDRVTITCRASQGISSYLAWYQQKPGKAPKLLIYYASSLQSGVPSRFSGSGSGTDFTLTISSLQPEDFATYYCHQYLSSDTFGQGTKVEIK |  |  |  | did not bind as well as the chimera
